Residue numbers refer to the chain shown, from its start.
T1: ST2/IL-33R Fc chimera (Mus musculus, UniProt P14719 27-332)
T1 sequence: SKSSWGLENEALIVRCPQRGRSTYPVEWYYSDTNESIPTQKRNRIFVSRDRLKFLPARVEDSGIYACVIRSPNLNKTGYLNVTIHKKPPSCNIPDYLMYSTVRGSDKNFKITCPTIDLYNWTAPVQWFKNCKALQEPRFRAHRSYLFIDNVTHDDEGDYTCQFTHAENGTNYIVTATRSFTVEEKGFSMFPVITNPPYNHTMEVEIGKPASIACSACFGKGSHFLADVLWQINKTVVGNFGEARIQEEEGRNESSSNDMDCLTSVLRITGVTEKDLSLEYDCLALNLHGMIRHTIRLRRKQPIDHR

B1: B RaptScore round6 2 (ssRNA)
RNA: GGGAGAACUUCGACUUGUAACAAGCUGUUUUGGAACAGCGCAUAACGAACCGUGCAGAGAUCCUC
B2: B RaptScore round7 1 (ssRNA)
RNA: B1 RNA with A49U
B3: B RaptScore round6 3 (ssRNA)
RNA: B1 RNA with C50A
B4: B RaptScore round7 3 (ssRNA)
RNA: B1 RNA with A49U, C50U

Target: T1, ST2/IL-33R Fc chimera
Test: SPR; SPR (Biacore T200): 295 mM NaCl, 5.4 mM KCl, 0.8 mM MgCl2, 18 mM CaCl2 (printed CaClCl2), 0.05% Tween 20, 20 mM Tris-HCl pH 7.6; temperature not stated. A/C: po

Binder	binding signal
B1	-4.91 % of B Round7 3
B2	-4.12 % of B Round7 3
B3	-3.28 % of B Round7 3
B4	-0.82 % of B Round7 3
